# From US10568344B2, “Methods of improving animal performance” (Novozymes A/S, priority 2015, dated 2020)
# Marks after values point to notes of the source that are not given here.
# B1: SEQ ID NO: 1: mature amino acid sequence of a wild type GH25 lysozyme from Acremonium alcalophilum with N-terminal SPIRR (protein)
# chain: SPIRRRIPGFDISGWQPTTDFARAYANGDRFVYIKATEGTTFKSSAFSRQYTGATQNGFIRGAYHFAQPAASSGAAQARYFASNGGGWSKDGITLPGALDIEYNPNGATCYGLSQSAMVNWIEDFVTTYHGITSRWPVIYTTTDWWTQCTGNSNRFANRCPLWIARYASSVGTLPNGWGFYTFWQYNDKYPQGGDSNWFNGDASRLRALANGD
# modifications: Wild type sequence with N-terminal SPIRR
# What was measured:
# [1] = In vivo piglet trial, growth performance; design: species or system weaned piglets
# Procedure: The trial was performed from Oct. 23 to Dec. 4, 2014 at the Research Center for Animal Nutrition (DSM Nutritional Products France, F-68305 Village-Neuf) according to the official French guidelines for experiments with live animals. One hundred and four castrated male crossbred (Large-White (female)×Redon (male)) weaned piglets having 28 days of age supplied by the commercial farm “[…] du Rhin” located in Balgau (France), were used in a 42-day experiment. The initial bodyweight of the piglets was 7.88±0.675 kg. They were sorted by body weight into 32 groups of 3 or 4 piglets and randomly allotted to each dietary treatment. Each group of animals was placed in one flat-deck cages and allocated to one of the different treatments. Each treatment was replicated with 8 cages using a total of 26 animals (6 cages of 3 animals/treatment and 2 cages of 4 animals/treatment) per treatment. […] Animals were housed in an environmentally controlled room. Room temperature was initially 27° C. and was lowered weekly by about 2° C. until 21-22° C. and relative humidity percentage was 50%. The experimental diets (Pre-Starter and Starter) were fed ad libitum in two feeding phases from day 0 to 14 (phase 1, Pre-starter) and day 14 to 42 (phase 2, Starter). The ingredient composition and the calculated nutrient levels of the experimental diets for phases 1 and 2 are presented in table 11. Both diets were formulated to meet the animals' requirements according NRC (2012) and were fed in pelleted form. Pelleting conditions were at 70° C. for 30 seconds. […] No additional enzymes (e.g. phytase) were added to the feed. […] Appropriate amount of the liquid preparations of lysozyme was diluted in water and sprayed onto the respective pelleted feed to get the final concentrations in the feed corresponding to the different treatments. For procedural balance of all treatments the same volume of water were also sprayed onto the pellets of the control diets. Body weight of the individual animals and feed consumption per pen were recorded on days 14 and 42 of the study. […] The experimental unit was the piglet, except for ADFI and FCR which were measured by cage, and in both cases, treatment was used as class variable. One-factorial ANOVA and Student-Newman-Keuls test was used to assess differences among means in treatment groups.
# [2] = system: Faecalibacterium; assay: Microbiota analysis of broiler trial 4 (16S rRNA), Faecalibacterium; assay type: in vivo, chicken; design: key to Observed shift compared to the control group, Significance: Significant change (+++), padj < 0.05; Numerical change (+); details: 50 ppm
# [3] = system: Micrococcus lysodeikticus ATTC No. 4698; assay: Lysozyme activity turbidity assay (optical density drop); details: pH 4
molecule,measurement,setting,value
B1,"ADFI, % relative NC","[1]; day 0-14, 50 ppm",90.0%
same,"ADFI, Mean","[1]; day 0-14, 50 ppm",324 g/day
same,"ADWG, % relative NC","[1]; day 0-14, 50 ppm",96.2%
same,"ADWG, Mean","[1]; day 0-14, 50 ppm",279 g/day
same,"FCR, % relative NC","[1]; day 0-14, 50 ppm",94.4%
same,"FCR, Mean","[1]; day 0-14, 50 ppm",1.170^a
same,"ADFI, % relative NC","[1]; day 0-42, 50 ppm",93.1%
same,"ADFI, Mean","[1]; day 0-42, 50 ppm",683^a g/d
same,"ADWG, % relative NC","[1]; day 0-42, 50 ppm",102.4%
same,"ADWG, Mean","[1]; day 0-42, 50 ppm",511 g/day
same,"EPEF, % relative NC","[1]; day 0-42, 50 ppm",113.0%
same,"EPEF, Mean","[1]; day 0-42, 50 ppm",383
same,"FCR, % relative NC","[1]; day 0-42, 50 ppm",90.4%
same,"FCR, Mean","[1]; day 0-42, 50 ppm",1.341^a
same,"ADFI, % relative NC","[1]; day 14-42, 50 ppm",92.7%
same,"ADFI, Mean","[1]; day 14-42, 50 ppm",862^a g/d
same,"ADWG, % relative NC","[1]; day 14-42, 50 ppm",104.0%
same,"ADWG, Mean","[1]; day 14-42, 50 ppm",627 g/day
same,"FCR, % relative NC","[1]; day 14-42, 50 ppm",89.3%
same,"FCR, Mean","[1]; day 14-42, 50 ppm",1.379^a
same,Improvement on FCR compared to the negative control,"[1]; overall period (day 0 to day 42), 50 mg/kg",9.6%
same,Improvement to FCR compared to NC,"[1]; starter period, day 15 to day 42, 50 mg/kg",11.3%
same,Improvement of ADWG compared to the negative control diet,"[1]; starter period, 50 mg/kg",4.0%
same,EPEF improvement compared to the negative control,"[1]; whole period, 50 mg/kg",13.0%
same,Improvement of ADWG compared to the negative control diet,"[1]; whole period, 50 mg/kg",2.4%
same,"Observed shift compared to the control group, Significance",[2]; Genus level (Faecalibacterium),+
same,"Observed shift compared to the control group, Significance",[2]; OTU level (Faecalibacterium species),"+++ (Significant change (+++), padj < 0.05)"
same,OTU #27 (Faecalibacterium) Change vs control,[2]; OTU level,3.45
same,OTU #27 (Faecalibacterium) Ratio vs control,[2]; OTU level,16.53
same,"OTU #27 (Faecalibacterium) abundance, Lysozyme treatment","[2]; OTU level, ceca content",3.67
same,Faecalibacterium Change vs control,[2]; genus level,5.65
same,Faecalibacterium Ratio vs control,[2]; genus level,4.04
same,"Faecalibacterium abundance, Lysozyme treatment","[2]; genus level, ceca content",7.50
same,Lysozyme activity as measured by Optical Density Drop,[3],+ (pH 4)
